Our source for the Kd values is PMC5389482.

The series relates to ParF (plasmid TP228 (segregation module)). Briefly: fluorescence polarization. To be noted: 5 mM ATP, 5 mM Mg acetate, 150 mM K glutamate; 150 mM potassium glutamate (50-350 mM in salt series), pH 7.5, 5 mM magnesium acetate, 5 mM ATP or ADP, 25 C, 1 nM DNA. On the technique in general: Fluorescence polarisation rises when a labelled molecule tumbles more slowly, as on binding a larger partner.

Regarding “AATTACTCAATTACTCAATT (double strand) [20-mer]”, the Kd is 0.156 µM.

Usually Kd stands for the constant that tells how readily two partners part at equilibrium.
